The record followed here is paper PMC9245421, “The VvWRKY37 Regulates Bud Break in Grape Vine Through ABA-Mediated Signaling Pathways”.

Series [1] deals with T1, VvABF2-HIS (grape vine, UniProt F6H1D1 1-447).
T1 sequence: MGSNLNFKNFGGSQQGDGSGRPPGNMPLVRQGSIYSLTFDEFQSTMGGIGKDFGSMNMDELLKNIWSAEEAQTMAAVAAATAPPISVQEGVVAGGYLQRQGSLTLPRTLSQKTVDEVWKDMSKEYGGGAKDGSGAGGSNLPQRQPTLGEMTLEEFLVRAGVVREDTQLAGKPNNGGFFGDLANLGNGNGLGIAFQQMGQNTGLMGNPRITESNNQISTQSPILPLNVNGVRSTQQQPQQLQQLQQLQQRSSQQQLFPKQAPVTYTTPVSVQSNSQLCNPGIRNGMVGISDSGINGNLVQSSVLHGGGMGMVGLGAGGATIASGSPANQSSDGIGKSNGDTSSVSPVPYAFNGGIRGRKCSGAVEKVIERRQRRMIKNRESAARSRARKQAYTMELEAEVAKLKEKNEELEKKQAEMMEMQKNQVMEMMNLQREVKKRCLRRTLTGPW
Description: EMSA; EMSA: 2 ul of 5x buffer (50% glycerol, 50 mM MgCl2, 5 mM EDTA, 10 mM DTT, 500 mM KCl, 250 mM HEPES pH 7.4) in 10 ul, i.e. 1x = 10% glycerol, 10 mM MgCl2, 1 mM EDTA, 2 mM DTT, 100 mM KCl, 50 mM HEPES; 1 ul of 0.05 uM biotin probe; 24 C, 20 min; 6% native gel, 0.5x TBE. As to conditions: protein: recombinant; tags: His (pET32a); label: biotin; blunt. (In general: A gel shift assay detects complexes by their altered migration in electrophoresis.)

In series [2] the target is T2, VvABI5-HIS (grape vine, UniProt F6HQA3 1-409).
T2 sequence: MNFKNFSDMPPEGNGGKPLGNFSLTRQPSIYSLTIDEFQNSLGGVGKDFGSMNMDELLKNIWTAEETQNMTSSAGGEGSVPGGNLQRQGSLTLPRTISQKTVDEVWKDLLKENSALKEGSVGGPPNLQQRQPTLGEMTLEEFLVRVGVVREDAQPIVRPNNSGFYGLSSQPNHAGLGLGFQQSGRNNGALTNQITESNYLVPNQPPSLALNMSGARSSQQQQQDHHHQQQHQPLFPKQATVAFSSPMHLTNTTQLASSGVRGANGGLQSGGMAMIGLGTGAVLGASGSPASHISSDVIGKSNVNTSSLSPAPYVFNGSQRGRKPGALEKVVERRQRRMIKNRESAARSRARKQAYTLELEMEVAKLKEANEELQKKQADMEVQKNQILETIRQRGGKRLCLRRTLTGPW
The series is described as above. As to conditions: protein: recombinant; tags: His (pET32a); label: biotin; blunt.

Series [3] addresses T1, VvABF2-HIS. Briefly: competition; 100-fold unlabeled vs W37-P2; EMSA: 2 ul of 5x buffer (50% glycerol, 50 mM MgCl2, 5 mM EDTA, 10 mM DTT, 500 mM KCl, 250 mM HEPES pH 7.4) in 10 ul, i.e. 1x = 10% glycerol, 10 mM MgCl2, 1 mM EDTA, 2 mM DTT, 100 mM KCl, 50 mM HEPES; 1 ul of 0.05 uM biotin probe; 24 C, 20 min; 6% native gel, 0.5x TBE. As to conditions: protein: recombinant; tags: His (pET32a); blunt.

Series [4] addresses T2, VvABI5-HIS. Described as above. As to conditions: protein: recombinant; tags: His (pET32a); blunt.

B1: W37-P2 (dsDNA)
DNA 1: TCCAAATGCTTTCACGTAATTTCATTTGTT
DNA 2: AACAAATGAAATTACGTGAAAGCATTTGGA
On to B1, for which the binding result with VvABF2-HIS [1] and with VvABI5-HIS [2] was “binds” each time.

B2: W37-mP2 (dsDNA)
DNA 1: TCCAAATGCTTTAACATGATTTCATTTGTT
DNA 2: AACAAATGAAATCATGTTAAAGCATTTGGA
Consider B2, for which the binding result with VvABF2-HIS [3] and in the series with VvABI5-HIS [4] was “no binding” in each case.

B3: W37-P1 (dsDNA)
DNA 1: CTCTCTCCCACGTGCCGACCTCACACGTGTTAGCCTCAT
DNA 2: ATGAGGCTAACACGTGTGAGGTCGGCACGTGGGAGAGAG
As for B3, the binding result in the series with VvABF2-HIS [1] and with VvABI5-HIS [2] was “no binding” each time.
